Experiment [1] addresses Cdh23 EC1-5. Put plainly: AFM force-clamp spectroscopy.
Experiment [2] has as its target full-length Cdh23 EC1-27. Put plainly: AFM force-clamp spectroscopy.
Experiment [3] addresses Pcdh15 EC1-11 PICA. The experiment can be described thus: AFM force-clamp spectroscopy.
The target of experiment [4] is Pcdh15 EC1-11 PICA.
For experiment [5], the target named is Mouse Cdh23 EC1-2 (mouse) (UniProt Q99PF4). Put plainly: AFM force-clamp spectroscopy.
Mouse Cdh23 EC1-2 (mouse), sequence (Q99PF4 24-228): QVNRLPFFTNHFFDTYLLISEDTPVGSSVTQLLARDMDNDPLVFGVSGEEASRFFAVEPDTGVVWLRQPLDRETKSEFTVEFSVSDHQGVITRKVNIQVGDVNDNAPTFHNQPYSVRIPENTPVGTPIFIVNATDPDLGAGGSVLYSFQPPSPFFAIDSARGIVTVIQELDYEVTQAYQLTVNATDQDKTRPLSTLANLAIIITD

On to “Mouse Pcdh15 EC1-2 (from UniProt Q99PJ1 27-259) (domain or fragment)”, for which the zero-force lifetime in experiment [1] stood at 1.5 s; in experiment [2], 10 s.

As to Cdh23 EC1-27 Fc dimer (Fc fusion), the intrinsic lifetime at no force (τ0) in experiment [3] came to 30 s.

In general, stoichiometry N refers to the number of molecules, sites or subunits per partner or assembly. In experiment [4], Pcdh15 EC1-11 PICA (domain or fragment) had a stoichiometry N of 2.

In general, koff refers to a measure of how fast the partners let go of each other. Higher therefore signals a short-lived complex. Regarding “Pcdh15 EC1-2 (R113G), Q99PJ1 27-259 (domain or fragment; other documents disagree on this pair)”, in experiment [5], the koff worked out at 0.3 s⁻¹.

The values are drawn from paper doi:10.1101/2022.08.10.503460.
